# Data taken from paper PMC4793188, “Mechanism and inhibition of human UDP-GlcNAc 2-epimerase, the key enzyme in sialic acid biosynthesis” (Scientific Reports, 2016).
# B1: epimerase part of human GNE (UDP-GlcNAc 2-epimerase domain of the bifunctional UDP-GlcNAc 2-epimerase/ManNAc kinase) (domain or fragment)
# chain: MEKNGNNRKLRVCVATCNRADYSKLAPIMFGIKTEPEFFELDVVVLGSHLIDDYGNTYRMIEQDDFDINTRLHTIVRGEDEAAMVESVGLALVKLPDVLNRLKPDIMIVHGDRFDALALATSAALMNIRILHIEGGEVSGTIDDSIRHAITKLAHYHVCCTRSAEQHLISMCEDHDRILLAGCPSYDKLLSAKNKDYMSIIRMWLGDDVKSKDYIVALQHPVTTDIKHSIKMFELTLDALISFNKRTLVLFPNIDAGSKEMVRVMRKKGIEHHPNFRAVKHVPFDQFIQLVAHAGCMIGNSSCGVREVGAFGTPVINLGTRQIGRETGENVLHVRDADTQDKILQALHLQFGKQYPCSKIYGDGNAVPRILKFLKSIDLQEPLQKKFCFPPVKENISQDIDHILE
# modifications: selenomethionine (Se-Met enriched protein, used for the crystal structure)
# notes: UDP-GlcNAc 2-epimerase domain (N-terminal epimerase part, ~400 aa) of human bifunctional UDP-GlcNAc 2-epimerase/ManNAc kinase (GNE, ~720 aa); Cloned into pET21a(+); dimer as apo-enzyme by gel filtration; also called 2-epimerase domain of GNE; recombinant human UDP-GlcNAc 2-epimerase; source: E. coli BL21 (DE3), purified (Ni-NTA, Superdex-200)
# Legend:
# [1] = biological target: the molecule itself; experiment: SEC; gel filtration of the apo-enzyme; data not shown
# [2] = biological target: the molecule itself; experiment: crystal structure; Se-Met protein incubated in 5 mM UDP-GlcNAc and 5 mM CMP-Neu5Ac for 16-18 h at 4 °C; crystals from 0.2 M ammonium acetate, 0.1 M HEPES pH 7.1, 19% PEG 3350; UDP and CMP-Neu5Ac bound; 2.7 Å; space group C2, four monomers in the asymmetric unit
protein,measurement,setting,value
B1,stoichiometry N,[1],2
same,stoichiometry N,[2],4
